# Measured values as given in paper PMC11046469, “Leveraging a Phage-Encoded Noncanonical Amino Acid: A Novel Pathway to Potent and Selective Epigenetic Reader Protein Inhibitors” (ACS Central Science, 2024).
# Target: T1, ENL YEATS domain (AviSUMO-ENL YEATS) (Homo sapiens, UniProt Q03111)
# T1 construct: encoding ENL YEATS (aa 1−148) was cloned in pET28a-; made in house; host or cells: E. coli BL21(DE3pLysS), co-expressed with BirA (pBirAcm)
# T1 sequence (Q03111 1-148): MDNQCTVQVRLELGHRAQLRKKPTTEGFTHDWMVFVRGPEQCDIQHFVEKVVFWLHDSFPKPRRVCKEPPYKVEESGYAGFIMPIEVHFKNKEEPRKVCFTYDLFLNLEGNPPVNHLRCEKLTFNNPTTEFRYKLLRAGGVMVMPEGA
# Assay: Phage panning of BuK-containing 7-mer library against AviSUMO-ENL YEATS with Illumina NGS abundance
# Conditions: sheet ENLR3: round 3 of panning against ENL YEATS; TAG = amber codon (BuK); 7-mer library positions V1-V7
# Source text: We utilized a previously established amber-obligate 7-mer phage display library to develop a phage display library enriched with BuK-containing 7-mer peptides. For detailed characterizations, including analysis of amber codon percentages, NNK trinucleotide analysis, and amino acid distribution at each position within the library, please refer to the work of Tharp et al.[10] Furthermore, the comprehensive raw NGS data for the amber-obligate 7-mer phage library can be found in the NCBI’s Sequence Read Archive, under the accession ID PRJNA606283. To produce the BuK-containing 7-mer phage library, the phages were produced in the presence of 5 mM BuK using TOP10 cells harboring the following three plasmids: (1) pADL-gIII, which contains the 7-mer amber-obligate peptide-coding DNA library positioned at the N-terminus of M13 pIII gene; (2) pCDF-BuKRS, which encodes BuKRS and its cognate tRNA^Pyl for the genetic incorporation of BuK at amber codons in the 7-mer library; and (3) M13KO7TAA, a helper phage plasmid engineered to have a TAA mutation at pIII so that its lack of a functional pIII allows an efficient multivalent display of the 7-mer library. The ENL YEATS domain containing an N-terminal AviSUMO-Tag was recombinantly expressed in E. coli together with BirA, a biotin ligase, for site-specific biotinylation at the AviTag. The biotinylated AviSUMO-ENL YEATS was immobilized on streptavidin-coated magnetic beads for panning with the BuK-containing phages. […] Phage libraries collected from the first and third rounds of selection were sequenced using Illumina next generation sequencing (NGS) and all sequenced data are available through the NCBI SRA database (Project PRJNA1041845). To prevent possible sequencing errors from affecting conclusions, sequences were filtered using previously published paired-end processing,[10] where any sequences containing more than one mismatch in the nonlibrary region or any mismatch in the library region were discarded. The NGS data provided DNA sequences encompassing both the library and nonlibrary regions. In our analysis, we included data from the nonlibrary region as a stringent quality control measure to filter out low-quality data. For our analysis, we utilized 51 nucleotides from the NGS output, with 21 nucleotides encoding the library region and an additional 30 nucleotides for the nonlibrary region. […] Among all the sequences, only 85 of them contained more than 100 copies (blue area), while the remaining sequences all had low abundances (<10^2 copies, dark and light gray areas), which constituted 85.2% of the first round population. After three panning rounds, the selection converged to two highly enriched sequences: YDVYCYX (ENL-S1) and WWIIEXG (ENL-S2, X denotes BuK). Out of 551 different unique sequences collected from the third round, ENL-S1 and ENL-S2 represented 85% of the entire library (Figure 2A and Figures S6–S8). Both peptide sequences corresponded to their own unique DNA sequence, rather than there being varying codons encoding the same amino acids (Figure S7). […] Two motifs were found in the majority of sequences with high abundance (greater than 0.1%) (Figure S6). A Y(C/L)Y pattern was identified in the residues adjacent to BuK in four of the eight top sequences. Also, an H(L/Y)(T/V)LFXG (X denotes BuK) motif was observed, albeit at lower abundances, in two of the top sequences. In the initial round of selection, we observed that only a small percentage of phages were eluted, which aligns with typical outcomes in phage selection experiments since only a low copy number of phages can bind to the target.[10],[45] With each successive round of selection, we noted a gradual increase in the percentage of phages eluted. This incremental, rather than sharp, increase was attributed to the intensification of selection pressures, such as the application of more stringent washing protocols. We aimed for the incremental increase to retain potent clones with low copy numbers from the previous selection cycle. […]
Substance,n (number of NGS reads of the unique amino acid sequence),percent (share of sequence reads)
ATAGSFHYL,1,0.0009106%
CCWTAGGGN,2,0.001821%
CDVYCYTAG,10,0.009106%
CFFTAGIMC,1,0.0009106%
CHMLCTAGD,56,0.05099%
CHNWICTAG,1,0.0009106%
CLPWTAGSS,7,0.006374%
CPCWTAGLL,1,0.0009106%
CTAGGGSLF,1,0.0009106%
CTYVITAGV,1,0.0009106%
CWGFEKTAG,1,0.0009106%
CWIIETAGG,22,0.02003%
CWSTAGNGD,1,0.0009106%
CWVCLPH,1,0.0009106%
CWVCTAGPH,74,0.06739%
CYDLCTAGG,21,0.01912%
CYDLCYG,1,0.0009106%
CYPTAGKCC,1,0.0009106%
CYVCRFL,1,0.0009106%

Substance,n (number of NGS reads of the unique amino acid sequence),percent (share of sequence reads)
DDVYCYTAG,7,0.006374%
DLVYCYTAG,1,0.0009106%
DMFRSTAGI,1,0.0009106%
FDVYCYTAG,2,0.001821%
FEISEWTAG,2,0.001821%
FKCTAGNGC,1,0.0009106%
FLFDTTAGT,1,0.0009106%
FLTRCML,1,0.0009106%
FLYTAGMPV,1,0.0009106%
FTAGIYTAA,1,0.0009106%
FTWSTAGED,1,0.0009106%
GRAVDTAGG,1,0.0009106%
HAIYCYTAG,759,0.6912%
HAIYFYTAG,1,0.0009106%
HCGPRTAGD,10,0.009106%
HCVLFTAGG,1,0.0009106%
HDVYCYTAG,13,0.01184%
HFTLFTAGG,2,0.001821%
HHVLFTAGG,1,0.0009106%

Substance,n (number of NGS reads of the unique amino acid sequence),percent (share of sequence reads)
HIKCTAGII,1,0.0009106%
HLNLFTAGG,2,0.001821%
HLTFFTAGG,3,0.002732%
HLTLFTAGC,2,0.001821%
HLTLFTAGD,4,0.003642%
HLTLFTAGG,2802,2.552%
HLTLFTAGV,4,0.003642%
HLTLFYG,3,0.002732%
HMTLFTAGG,1,0.0009106%
HPIYCYTAG,1,0.0009106%
HSIYCYTAG,1,0.0009106%
HSTLFTAGG,2,0.001821%
HSWFTAGDG,1,0.0009106%
HTAGSFCRL,1,0.0009106%
HTRSMTAGN,1,0.0009106%
HVIYCYTAG,2,0.001821%
HYFLFTAGG,1,0.0009106%
HYVLFTAGG,612,0.5573%
